Experiment [1] has as its system GFP-14-3-3β and its binding proteins. Briefly: GFP-14-3-3β co-IP with LC-MS/MS label-free quantification, untreated versus PP1c-treated. As to conditions: PP1 vs untreated; LFQ intensities; 3 replicates each. Also noted: species or system human.
The test system of a further experiment is GFP-14-3-3β. Briefly: GFP-14-3-3β co-IP with LC-MS/MS, untreated GFP-14-3-3β versus GFP control (14-3-3 interactome). It is filed as binding, human. The conditions noted are these: untreated vs GFP; LFQ intensities; 3 replicates each.

B1: CPM (protein, UniProt P14384 18-423, looked up)
Carboxypeptidase M: LDFNYHRQEGMEAFLKTVAQNYSSVTHLHSIGKSVKGRNLWVLVVGRFPKEHRIGIPEFKYVANMHGDETVGRELLLHLIDYLVTSDGKDPEITNLINSTRIHIMPSMNPDGFEAVKKPDCYYSIGRENYNQYDLNRNFPDAFEYNNVSRQPETVAVMKWLKTETFVLSANLHGGALVASYPFDNGVQATGALYSRSLTPDDDVFQYLAHTYASRNPNMKKGDECKNKMNFPNGVTNGYSWYPLQGGMQDYNYIWAQCFEITLELSCCKYPREEKLPSFWNNNKASLIEYIKQVHLGVKGQVFDQNGNPLPNVIVEVQDRKHICPYRTNKYGEYYLLLLPGSYIINVTVPGHDPHITKVIIPEKSQNFSALKKDILLPFQGQLDSIPVSNPSCPMIPLYRNLPDHS
Take B1: the “Difference (log2), PP1 vs untreated” value in experiment [1] is given as 0.5874 log2. The “Difference (log2), untreated vs GFP” value in the experiment on GFP-14-3-3β is recorded as -1.988 log2.

B2: OSBPL8 (protein, UniProt Q9BZF1 1-889, looked up)
Oxysterol-binding …: MEGGLADGEPDRTSLLGDSKDVLGPSTVVANSDESQLLTPGKMSQRQGKEAYPTPTKDLHQPSLSPASPHSQGFERGKEDISQNKDESSLSMSKSKSESKLYNGSEKDSSTSSKLTKKESLKVQKKNYREEKKRATKELLSTITDPSVIVMADWLKIRGTLKSWTKLWCVLKPGVLLIYKTQKNGQWVGTVLLNACEIIERPSKKDGFCFKLFHPLEQSIWAVKGPKGEAVGSITQPLPSSYLIIRATSESDGRCWMDALELALKCSSLLKRTMIREGKEHDLSVSSDSTHVTFYGLLRANNLHSGDNFQLNDSEIERQHFKDQDMYSDKSDKENDQEHDESDNEVMGKSEESDTDTSERQDDSYIEPEPVEPLKETTYTEQSHEELGEAGEASQTETVSEENKSLIWTLLKQVRPGMDLSKVVLPTFILEPRSFLDKLSDYYYHADFLSEAALEENPYFRLKKVVKWYLSGFYKKPKGLKKPYNPILGETFRCLWIHPRTNSKTFYIAEQVSHHPPISAFYVSNRKDGFCLSGSILAKSKFYGNSLSAILEGEARLTFLNRGEDYVMTMPYAHCKGILYGTMTLELGGTVNITCQKTGYSAILEFKLKPFLGSSDCVNQISGKLKLGKEVLATLEGHWDSEVFITDKKTDNSEVFWNPTPDIKQWRLIRHTVKFEEQGDFESEKLWQRVTRAINAKDQTEATQEKYVLEEAQRQAARDRKTKNEEWSCKLFELDPLTGEWHYKFADTRPWDPLNDMIQFEKDGVIQTKVKHRTPMVSVPKMKHKPTRQQKKVAKGYSSPEPDIQDSSGSEAQSVKPSTRRKKGIELGDIQSSIESIKQTQEEIKRNIMALRNHLVSSTPATDYFLQQKDYFIIFLLILLQVIINFMFK
For B2, in experiment [1], the “Difference (log2), PP1 vs untreated” value is 0.5791 log2. Moreover, the “Difference (log2), untreated vs GFP” value in the experiment on GFP-14-3-3β is 0.9951 log2.

B3: CPT1A (protein, UniProt P50416 2-773, looked up)
Carnitine …: AEAHQAVAFQFTVTPDGIDLRLSHEALRQIYLSGLHSWKKKFIRFKNGIITGVYPASPSSWLIVVVGVMTTMYAKIDPSLGIIAKINRTLETANCMSSQTKNVVSGVLFGTGLWVALIVTMRYSLKVLLSYHGWMFTEHGKMSRATKIWMGMVKIFSGRKPMLYSFQTSLPRLPVPAVKDTVNRYLQSVRPLMKEEDFKRMTALAQDFAVGLGPRLQWYLKLKSWWATNYVSDWWEEYIYLRGRGPLMVNSNYYAMDLLYILPTHIQAARAGNAIHAILLYRRKLDREEIKPIRLLGSTIPLCSAQWERMFNTSRIPGEETDTIQHMRDSKHIVVYHRGRYFKVWLYHDGRLLKPREMEQQMQRILDNTSEPQPGEARLAALTAGDRVPWARCRQAYFGRGKNKQSLDAVEKAAFFVTLDETEEGYRSEDPDTSMDSYAKSLLHGRCYDRWFDKSFTFVVFKNGKMGLNAEHSWADAPIVAHLWEYVMSIDSLQLGYAEDGHCKGDINPNIPYPTRLQWDIPGECQEVIETSLNTANLLANDVDFHSFPFVAFGKGIIKKCRTSPDAFVQLALQLAHYKDMGKFCLTYEASMTRLFREGRTETVRSCTTESCDFVRAMVDPAQTVEQRLKLFKLASEKHQHMYRLAMTGSGIDRHLFCLYVVSKYLAVESPFLKEVLSEPWRLSTSQTPQQQVELFDLENNPEYVSSGGGFGPVADDGYGVSYILVGENLINFHISSKFSCPETDSHRFGRHLKEAMTDIITLFGLSSNSKK
Consider B3, for which the “Difference (log2), PP1 vs untreated” value in experiment [1] was determined as 0.596 log2. Also, the “Difference (log2), untreated vs GFP” value with GFP-14-3-3β came out at 1.035 log2.

B4: ATXN2 (protein, UniProt Q99700 1-1313, looked up)
Ataxin-2: MRSAAAAPRSPAVATESRRFAAARWPGWRSLQRPARRSGRGGGGAAPGPYPSAAPPPPGPGPPPSRQSSPPSASDCFGSNGNGGGAFRPGSRRLLGLGGPPRPFVVLLLPLASPGAPPAAPTRASPLGARASPPRSGVSLARPAPGCPRPACEPVYGPLTMSLKPQQQQQQQQQQQQQQQQQQQQQQQPPPAAANVRKPGGSGLLASPAAAPSPSSSSVSSSSATAPSSVVAATSGGGRPGLGRGRNSNKGLPQSTISFDGIYANMRMVHILTSVVGSKCEVQVKNGGIYEGVFKTYSPKCDLVLDAAHEKSTESSSGPKREEIMESILFKCSDFVVVQFKDMDSSYAKRDAFTDSAISAKVNGEHKEKDLEPWDAGELTANEELEALENDVSNGWDPNDMFRYNEENYGVVSTYDSSLSSYTVPLERDNSEEFLKREARANQLAEEIESSAQYKARVALENDDRSEEEKYTAVQRNSSEREGHSINTRENKYIPPGQRNREVISWGSGRQNSPRMGQPGSGSMPSRSTSHTSDFNPNSGSDQRVVNGGVPWPSPCPSPSSRPPSRYQSGPNSLPPRAATPTRPPSRPPSRPSRPPSHPSAHGSPAPVSTMPKRMSSEGPPRMSPKAQRHPRNHRVSAGRGSISSGLEFVSHNPPSEAATPPVARTSPSGGTWSSVVSGVPRLSPKTHRPRSPRQNSIGNTPSGPVLASPQAGIIPTEAVAMPIPAASPTPASPASNRAVTPSSEAKDSRLQDQRQNSPAGNKENIKPNETSPSFSKAENKGISPVVSEHRKQIDDLKKFKNDFRLQPSSTSESMDQLLNKNREGEKSRDLIKDKIEPSAKDSFIENSSSNCTSGSSKPNSPSISPSILSNTEHKRGPEVTSQGVQTSSPACKQEKDDKEEKKDAAEQVRKSTLNPNAKEFNPRSFSQPKPSTTPTSPRPQAQPSPSMVGHQQPTPVYTQPVCFAPNMMYPVPVSPGVQPLYPIPMTPMPVNQAKTYRAVPNMPQQRQDQHHQSAMMHPASAAGPPIAATPPAYSTQYVAYSPQQFPNQPLVQHVPHYQSQHPHVYSPVIQGNARMMAPPTHAQPGLVSSSATQYGAHEQTHAMYACPKLPYNKETSPSFYFAISTGSLAQQYAHPNATLHPHTPHPQPSATPTGQQQSQHGGSHPAPSPVQHHQHQAAQALHLASPQQQSAIYHAGLAPTPPSMTPASNTQSPQNSFPAAQQTVFTIHPSHVQPAYTNPPHMAHVPQAHVQSGMVPSHPTAHAPMMLMTTQPPGGPQAALAQSALQPIPVSTTAHFPYMTHPSVQAHHQQQL
For the molecule B4, the “Difference (log2), PP1 vs untreated” value in experiment [1] was determined as 0.5906 log2. In addition, the “Difference (log2), untreated vs GFP” value in the experiment with GFP-14-3-3β was 1.35 log2.

B5: RASAL2 (protein, UniProt Q9UJF2 1-1139, looked up)
Ras GTPase-activating protein …: MQTPEVPAERSPRRRSISGTSTSEKPNSMDTANTSPFKVPGFFSKRLKGSIKRTKSQSKLDRNTSFRLPSLRSTDDRSRGLPKLKESRSHESLLSPCSTVECLDLGRGEPVSVKPLHSSILGQDFCFEVTYLSGSKCFSCNSASERDKWMENLRRTVQPNKDNCRRAENVLRLWIIEAKDLAPKKKYFCELCLDDTLFARTTSKTKADNIFWGEHFEFFSLPPLHSITVHIYKDVEKKKKKDKNNYVGLVNIPTASVTGRQFVEKWYPVSTPTPNKGKTGGPSIRIKSRFQTITILPMEQYKEFAEFVTSNYTMLCSVLEPVISVRNKEELACALVHILQSTGRAKDFLTDLVMSEVDRCGEHDVLIFRENTIATKSIEEYLKLVGQQYLHDALGEFIKALYESDENCEVDPSKCSSSELIDHQSNLKMCCELAFCKIINSYCVFPRELKEVFASWKQQCLNRGKQDISERLISASLFLRFLCPAIMSPSLFNLMQEYPDDRTSRTLTLIAKVIQNLANFAKFGNKEEYMAFMNDFLEHEWGGMKRFLLEISNPDTISNTPGFDGYIDLGRELSVLHSLLWEVVSQLDKGENSFLQATVAKLGPLPRVLADITKSLTNPTPIQQQLRRFTEHNSSPNVSGSLSSGLQKIFEDPTDSDLHKLKSPSQDNTDSYFRGKTLLLVQQASSQSMTYSEKDERESSLPNGRSVSLMDLQDTHAAQVEHASVMLDVPIRLTGSQLSITQVASIKQLRETQSTPQSAPQVRRPLHPALNQPGGLQPLSFQNPVYHLNNPIPAMPKASIDSSLENLSTASSRSQSNSEDFKLSGPSNSSMEDFTKRSTQSEDFSRRHTVPDRHIPLALPRQNSTGQAQIRKVDQGGLGARAKAPPSLPHSASLRSTGSMSVVSAALVAEPVQNGSRSRQQSSSSRESPVPKVRAIQRQQTQQVQSPVDSATMSPVERTAAWVLNNGQYEEDVEETEQNLDEAKHAEKYEQEITKLKERLRVSSRRLEEYERRLLVQEQQMQKLLLEYKARLEDSEERLRRQQEEKDSQMKSIISRLMAVEEELKKDHAEMQAVIDAKQKIIDAQEKRIVSLDSANTRLMSALTQVKERYSMQVRNGISPTNPTKLSITENGEFKNSSC
For B5, the “Difference (log2), PP1 vs untreated” value in experiment [1] is 0.5963 log2. For the same molecule, the “Difference (log2), untreated vs GFP” value in the experiment on GFP-14-3-3β is 1.812 log2.

B6: MYO1B (protein, UniProt O43795 1-1136, looked up)
Unconventional myosin-Ib: MAKMEVKTSLLDNMIGVGDMVLLEPLNEETFINNLKKRFDHSEIYTYIGSVVISVNPYRSLPIYSPEKVEEYRNRNFYELSPHIFALSDEAYRSLRDQDKDQCILITGESGAGKTEASKLVMSYVAAVCGKGAEVNQVKEQLLQSNPVLEAFGNAKTVRNDNSSRFGKYMDIEFDFKGDPLGGVISNYLLEKSRVVKQPRGERNFHVFYQLLSGASEELLNKLKLERDFSRYNYLSLDSAKVNGVDDAANFRTVRNAMQIVGFMDHEAESVLAVVAAVLKLGNIEFKPESRVNGLDESKIKDKNELKEICELTGIDQSVLERAFSFRTVEAKQEKVSTTLNVAQAYYARDALAKNLYSRLFSWLVNRINESIKAQTKVRKKVMGVLDIYGFEIFEDNSFEQFIINYCNEKLQQIFIELTLKEEQEEYIREDIEWTHIDYFNNAIICDLIENNTNGILAMLDEECLRPGTVTDETFLEKLNQVCATHQHFESRMSKCSRFLNDTSLPHSCFRIQHYAGKVLYQVEGFVDKNNDLLYRDLSQAMWKASHALIKSLFPEGNPAKINLKRPPTAGSQFKASVATLMKNLQTKNPNYIRCIKPNDKKAAHIFNEALVCHQIRYLGLLENVRVRRAGYAFRQAYEPCLERYKMLCKQTWPHWKGPARSGVEVLFNELEIPVEEYSFGRSKIFIRNPRTLFKLEDLRKQRLEDLATLIQKIYRGWKCRTHFLLMKKSQIVIAAWYRRYAQQKRYQQTKSSALVIQSYIRGWKARKILRELKHQKRCKEAVTTIAAYWHGTQARRELRRLKEEARNKHAIAVIWAYWLGSKARRELKRLKEEARRKHAVAVIWAYWLGLKVRREYRKFFRANAGKKIYEFTLQRIVQKYFLEMKNKMPSLSPIDKNWPSRPYLFLDSTHKELKRIFHLWRCKKYRDQFTDQQKLIYEEKLEASELFKDKKALYPSSVGQPFQGAYLEINKNPKYKKLKDAIEEKIIIAEVVNKINRANGKSTSRIFLLTNNNLLLADQKSGQIKSEVPLVDVTKVSMSSQNDGFFAVHLKEGSEAASKGDFLFSSDHLIEMATKLYRTTLSQTKQKLNIEISDEFLVQFRQDKVCVKFIQGNQKNGSVPTCKRKNNRLLEVAVP
In the case of B6, in experiment [1], the “Difference (log2), PP1 vs untreated” value was 0.5838 log2. Moreover, the “Difference (log2), untreated vs GFP” value with GFP-14-3-3β was -1.083 log2.

For the origin of these results see article PMC7367873, “Dissecting the sequence determinants for dephosphorylation by the catalytic subunits of phosphatases PP1 and PP2A” (Nature Communications, 2020).
